Source: patent publication US20100291160A1, “PHARMACEUTICAL SYSTEM FOR TRANS-MEMBRANE DELIVERY” (priority 2009, published 2010)
Structures can show the parent of a compound that is named as a salt.

Legend:
[1] = in vitro diffusion of formulation across membrane mounted on vial; assay type: in vitro ADME, pig or sheep; settings: for Optimal pH Conditions with Experimental Formulation: pH found to produce rapid diffusion across the membrane, pH adjusted with sodium bicarbonate or citric acid
Text: A flat section of either pig or sheep intestinal membrane is mounted across the open top of the vial. A screw top having a 7 mm hole (approximate) is then screwed to the vial, thereby securing the membrane to the vial. The vial is inverted and immersed in an isotonic solution (e.g., saline). Diffusion of the formulation is then allowed to proceed. The isotonic solution may be agitated with a magnetic stirrer. A pipette is used to sampling the saline solution at designated time intervals (e.g., 5, 10, 30, 60, 90, 180, and 600 seconds).
Other membranes may be used, including commonly available natural casing for food preparation, or cell culture human membranes (e.g. membranes from MatTek Corporation; Ashland, Mass.). […] Samples may contain vitamin B12 and arginine. The pH of the formulation may be adjusted as necessary.
The following compounds were analyzed in in vitro tests and the pH of the solutions were adjusted to the values noted below with either sodium bicarbonate (solid) or citric acid to produce the desired testing pH solutions.

[2] = in vivo sublingual administration to rats, active agent in plasma by HPLC; parameters: species or system Sprague Dawley rats; settings: sublingual experimental formulation in rats; ng/mL in serum relative to ng/mL in serum from published studies (conventional control dose)
Procedure: Formulations comprising a variety of active agents were also tested in vivo. A […] volume/400 g animal formulation was administered sublingually to rats (Sprague Dawley rats, with jugular catheters were purchased from Charles River Laboratories). All rats were in the 275-300 g weight range.
All dose formulations were prepared on the day of dosing. Prior to dose administration, each rat was anesthetized with ketamine:xylazine (7:1, 60 mg/kg, IM) and positioned (supine) so that the head and shoulders were in alignment to preclude drainage of the dose into the trachea or esophagus. The mouth was opened and the interior (including under the tongue) was swabbed with dry cotton applicators. The tongue was held up and the dose was dispensed (same technician for all applications) into the sublingual pocket. The tongue was allowed to return to a normal position and the mouth was allowed to close.
Blood samples were drawn via catheter or cardiac puncture either 10 minutes following administration, or over a time range including 30 seconds, 1 minute, 5 minutes and 15 minutes following administration. The concentration (ng/mL) of the active agent in rat plasma was calculated using high powered liquid chromatography (HPLC). Efficiency was calculated as (ng/mL administered active agent in serum)/(ng/mL active agent in serum from published studies).

Observed Plasma Levels [2] [%]	Molecule	Optimal pH Conditions with Experimental Formulation [1]	other results
0 to 600	CNC[C@H](O)c1ccc(O)c(O)c1 [Epinephrine]	pH 5.0 to 7.0	–
169.00	CCCc1nn(C)c2c(=O)[nH]c(-c3cc(S(=O)(=O)N4CCN(C)CC4)ccc3OCC)nc12 [sildenafil citrate]	–	–

Second part, the molecule before the results:

Molecule	Observed Plasma Levels [2] [%]	Optimal pH Conditions with Experimental Formulation [1]	other results
CCCC[C@H](NC(C)=O)C(=O)N[C@H]1CC(=O)NCCCC[C@@H](C(=O)O)NC(=O)[C@H](Cc2c[nH]c3ccccc23)NC(=O)[C@H](CCCN=C(N)N)NC(=O)[C@@H](Cc2ccccc2)NC(=O)[C@H](Cc2cnc[nH]2)NC1=O [Bremelanotide]	136.00	pH 6.0 to 8.0	–
CCCc1nn(C)c2c(=O)[nH]c(-c3cc(S(=O)(=O)N4CCN(C)CC4)ccc3OCC)nc12 [Sildenafil]	–	pH 6.8	–
CC[C@H](C)[C@H](NC(=O)[C@H](CCC(=O)O)NC(=O)[C@H](CO)NC(=O)[C@@H](NC(=O)[C@@H](N)CO)C(C)C)C(=O)N[C@@H](CCC(N)=O)C(=O)N[C@@H](CC(C)C)C(=O)N[C@@H](CCSC)C(=O)N[C@@H](Cc1cnc[nH]1)C(=O)N[C@@H](CC(N)=O)C(=O)N[C@@H](CC(C)C)C(=O)NCC(=O)N[C@@H](CCCCN)C(=O)N[C@@H](Cc1cnc[nH]1)C(=O)N[C@@H](CC(C)C)C(=O)N[C@@H](CC(N)=O)C(=O)N[C@@H](CO)C(=O)N[C@@H](CCSC)C(=O)N[C@@H](CCC(=O)O)C(=O)N[C@@H](CCCN=C(N)N)C(=O)N[C@H](C(=O)N[C@@H](CCC(=O)O)C(=O)N[C@@H](Cc1c[nH]c2ccccc12)C(=O)N[C@@H](CC(C)C)C(=O)N[C@@H](CCCN=C(N)N)C(=O)N[C@@H](CCCCN)C(=O)N[C@@H](CCCCN)C(=O)N[C@@H](CC(C)C)C(=O)N[C@@H](CCC(N)=O)C(=O)N[C@@H](CC(=O)O)C(=O)N[C@H](C(=O)N[C@@H](Cc1cnc[nH]1)C(=O)N[C@@H](CC(N)=O)C(=O)N[C@@H](Cc1ccccc1)C(=O)O)C(C)C)C(C)C [Teriparatide (rDNA Origin), Teriparatide]	–	pH 6.8	–
Adalimumab	–	pH 7.7	–
Enoxaparin Sodium	–	pH 8.0 to 6.0	–
Etanercept	–	pH 8	rate of absorption ([1]; at lower pH values (than approximately 8.0)): dramatically reduced by at least a factor of five times; transport of the drug after elimination of each of the cofactors of the formulation ([1]; in most tests): slight to substantial decreases; pH at which transport occurred ([1]; in vitro membrane test of Example 3): 8 pH; rates of membrane transport ([1]; pH adjusted to approximately 8.0): substantially increased
Neupogen: a filgrastim (e.g., G-CSF, Neupogen) (protein, UniProt P09919 31-207, looked up, filgrastim) Granulocyte …: TPLGPASSLPQSFLLKCLEQVRKIQGDGAALQEKLVSECATYKLCHPEELVLLGHSLGIPWAPLSSCPSQALQLAGCLSQLHSGLFLYQGLLQALEGISPELGPTLDTLQLDVADFATTIWQQMEELGMAPALQPTQGAMPAFASAFQRRAGGVLVASHLQSFLEVSYRVLRHLAQP	–	pH 7.4	–
